Reference: doi:10.1101/2021.01.05.425367 (bioRxiv, 2021)

Molecular target: T1, LolB-Strep (E. coli, UniProt P61320 22-207)
T1 sequence (looked up): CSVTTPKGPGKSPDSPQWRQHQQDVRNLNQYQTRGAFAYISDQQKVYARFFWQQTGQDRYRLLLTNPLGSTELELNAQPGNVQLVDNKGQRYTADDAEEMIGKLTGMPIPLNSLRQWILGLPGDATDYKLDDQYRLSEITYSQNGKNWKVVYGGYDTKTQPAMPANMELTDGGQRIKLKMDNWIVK
Experiment: pull-down

B1: wild-type RcsF (natural protein, E. coli, UniProt P69411 16-134, looked up)
chain: CSMLSRSPVEPVQSTAPQPKAEPAKPKAPRATPVRIYTNAEELVGKPFRDLGEVSGDSCQASNQDSPPSIPTARKRMQINASKMKANAVLLHSCEVTSGTPGCYRQAVCIGSALNITAK
modifications: acylated (lipidated) N-terminal cysteine, the first residue of the mature lipoprotein
- binding result: binds
